Data from publication PMC8951703, “A multifunctional enolase mediates cytoadhesion and interaction with host plasminogen and fibronectin in Mycoplasma hyorhinis” (Veterinary Research, 2022).

Target: T1, Recombinant M. hyorhinis enolase, wild-type (Mycoplasma hyorhinis (strain HUB-1), UniProt P0DXB0 1-450)
T1 construct: enolase of Mycoplasma hyorhinis strain HUB-1, full-length gene MHR_0469 of GenBank CP002170.1, codon-optimized and synthesized; the C-terminal residues are K451 and K452; also called rEno; rEno WT
Assay: SPR; plasminogen or fibronectin immobilised on CM5 chips by amine coupling (600 RU); recombinant enolase proteins 0-4000 nM injected at 30 uL/min for 180 s, 20 °C, dissociation 1000 s; 10 mM HEPES, 150 mM NaCl, 3 mM EDTA, 0.05% surfactant P20; Biacore X100
Conditions: both partners purified

B1: plasminogen (natural protein)
chain: EPLDDYVNTQGASLFSVTKKQLGAGSIEECAAKCEEDEEFTCRAFQYHSKEQQCVIMAENRKSSIIIRMRDVVLFEKKVYLSECKTGNGKNYRGTMSKTKNGITCQKWSSTSPHRPRFSPATHPSEGLEENYCRNPDNDPQGPWCYTTDPEKRYDYCDILECEEECMHCSGENYDGKISKTMSGLECQAWDSQSPHAHGYIPSKFPNKNLKKNYCRNPDRELRPWCFTTDPNKRWELCDIPRCTTPPPSSGPTYQCLKGTGENYRGNVAVTVSGHTCQHWSAQTPHTHNRTPENFPCKNLDENYCRNPDGKRAPWCHTTNSQVRWEYCKIPSCDSSPVSTEQLAPTAPPELTPVVQDCYHGDGQSYRGTSSTTTTGKKCQSWSSMTPHRHQKTPENYPNAGLTMNYCRNPDADKGPWCFTTDPSVRWEYCNLKKCSGTEASVVAPPPVVLLPDVETPSEEDCMFGNGKGYRGKRATTVTGTPCQDWAAQEPHRHSIFTPETNPRAGLEKNYCRNPDGDVGGPWCYTTNPRKLYDYCDVPQCAAPSFDCGKPQVEPKKCPGRVVGGCVAHPHSWPWQVSLRTRFGMHFCGGTLISPEWVLTAAHCLEKSPRPSSYKVILGAHQEVNLEPHVQEIEVSRLFLEPTRKDIALLKLSSPAVITDKVIPACLPSPNYVVADRTECFITGWGETQGTFGAGLLKEAQLPVIENKVCNRYEFLNGRVQSTELCAGHLAGGTDSCQGDSGGPLVCFEKDKYILQGVTSWGLGCARPNKPGVYVRVSRFVTWIEGVMRNN
Kd: 1.4 ± 0.07 nM
